Measured values: article PMC12012885, “Cell-Free Reaction System for ATP Regeneration from D-Fructose” (ACS Synthetic Biology, 2025)
Numbering of substitutions follows the chain as printed. In names and notes the source's numbering stands.

B1: Bad.F6Pkt (Bifidobacterium adolescentis ATCC 15703) (protein)
chain: MTSPVIGTPWKKLNAPVSEEAIEGVDKYWRAANYLSIGQIYLRSNPLMKEPFTREDVKHRLVGHWGTTPGLNFLIGHINRLIADHQQNTVIIMGPGHGGPAGTAQSYLDGTYTEYFPNITKDEAGLQKFFRQFSYPGGIPSHYAPETPGSIHEGGELGYALSHAYGAVMNNPSLFVPAIVGDGEAETGPLATGWQSNKLINPRTDGIVLPILHLNGYKIANPTILSRISDEELHEFFHGMGYEPYEFVAGFDNEDHLSIHRRFAELFETVFDEICDIKAAAQTDDMTRPFYPMIIFRTPKGWTCPKFIDGKKTEGSWRSHQVPLASARDTEAHFEVLKNWLESYKPEELFDENGAVKPEVTAFMPTGELRIGENPNANGGRIREELKLPKLEDYEVKEVAEYGHGWGQLEATRRLGVYTRDIIKNNPDSFRIFGPDETASNRLQAAYDVTNKQWDAGYLSAQVDEHMAVTGQVTEQLSEHQMEGFLEGYLLTGRHGIWSSYESFVHVIDSMLNQHAKWLEATVREIPWRKPISSMNLLVSSHVWRQDHNGFSHQDPGVTSVLLNKCFNNDHVIGIYFPVDSNMLLAVAEKCYKSTNKINAIIAGKQPAATWLTLDEARAELEKGAAEWKWASNVKSNDEAQIVLAATGDVPTQEIMAAADKLDAMGIKFKVVNVVDLVKLQSAKENNEALSDEEFAELFTEDKPVLFAYHSYARDVRGLIYDRPNHDNFNVHGYEEQGSTTTPYDMVRVNNIDRYELQAEALRMIDADKYADKINELEAFRQEAFQFAVDNGYDHPDYTDWVYSGVNTNKQGAISATAATAGDNE
notes: homodimer
B2: Bad.F6Pkt (Bifidobacterium adolescentis ATCC 15703; H548N) (protein)
chain: B1 chain with H548N
notes: homodimer

Experiments:
[1] = biological target: Asp52 (UniProt position 70, TDGSTDYGILQ); conditions: cited from earlier work
[2] = biological target: T1, Ps.LrhI (Stutzerimonas stutzeri, UniProt Q75WH8); test: coupled assay with D-erythrulose reductase, NADH at […] nm; type: biochemical; conditions: 10 mM D-erythrose, 4 mM MgCl2, pH 7.0, 37 °C
T1 construct: gene L-RhI; N-terminal hexa-His tag, synthetic gene in pET-28a, E. coli Rosetta(DE3) pLysS
T1 sequence (Q75WH8 1-430): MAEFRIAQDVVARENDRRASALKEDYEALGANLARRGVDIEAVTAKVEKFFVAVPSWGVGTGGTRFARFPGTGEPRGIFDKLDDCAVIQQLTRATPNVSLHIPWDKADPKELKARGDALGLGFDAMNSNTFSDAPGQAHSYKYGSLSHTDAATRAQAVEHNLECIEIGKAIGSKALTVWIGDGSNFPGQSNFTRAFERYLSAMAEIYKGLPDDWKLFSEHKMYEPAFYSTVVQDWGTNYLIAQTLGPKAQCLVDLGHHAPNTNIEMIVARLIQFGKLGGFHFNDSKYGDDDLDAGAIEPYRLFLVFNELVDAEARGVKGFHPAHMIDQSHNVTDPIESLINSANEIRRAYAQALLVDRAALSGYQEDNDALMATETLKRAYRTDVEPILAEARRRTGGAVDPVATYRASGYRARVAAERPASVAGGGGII

[3] = substrate: O=C(CO)[C@H](O)CO; test: purified protein; type: biochemical, Bifidobacterium adolescentis; conditions: pH 6.5, 37 °C, 50 mM inorganic phosphate, 0.8 mM TPP, 3.8 mM MgCl2

Molecule	Km [3] [mM]	other results
Hen egg white lysozyme (lysozyme C) (Gallus gallus)		pKa [1]: 3.33
OC1OC[C@@H](O)[C@H]1O (stereo partly drawn) [D-erythrose]		coupled assay with D-erythrulose reductase, NADH at 340 nm [2]: We characterized the D-erythrose activity of the enzyme and its stability under synthesis-like conditions
B1	36.2 ± 3.2	
B2	48.7 ± 0.4	
